{"source": "patent WO2001096599A2", "target": "recombinant ED-B protein (UniProt P02751)", "sequence (P02751 1266-1356 limits assumed)": "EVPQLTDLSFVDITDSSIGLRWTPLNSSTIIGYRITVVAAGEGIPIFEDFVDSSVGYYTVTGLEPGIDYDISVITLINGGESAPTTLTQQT", "experiment": "I-125 labelled antibody on a small column of ED-B sepharose, elution with TEA pH 11", "data": [{"substance": "L19, human recombinant antibody directed against the Extra Domain B", "values": [{"measurement": "immuno-reactivity (% of labeled material that bound to the ED-B sepharose column and was eluted)", "result": "85 to 95", "unit": "%"}]}]}
